This note sets out measurements from patent US20230111102A1 (published 2023).

For this experiment, the target named is HEWL (lysozyme, derived from egg albumen, FUJIFILM Wako Pure Chemical Corporation) (UniProt P00698 19-147). Briefly: SPR (Biacore).
Sequence of HEWL (lysozyme, derived from egg albumen, FUJIFILM Wako Pure Chemical Corporation) (P00698 19-147): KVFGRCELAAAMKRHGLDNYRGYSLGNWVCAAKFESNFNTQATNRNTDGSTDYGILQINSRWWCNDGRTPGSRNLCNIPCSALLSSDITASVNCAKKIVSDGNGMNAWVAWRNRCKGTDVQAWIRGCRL

B1: 1ZVH (VHH, SEQ ID NO: 38) produced by Bacillus subtilis Dpr9ΔsigF (VHH)
VHH: QVQLVESGGGLVQPGGSLRLSCAASGFTFSNDAMTWVRQAPGKALEWVSSITLLGGGIPYYSDTVKGRFTISRDNTKNMLYLQMNSLKPEDTAVYYCAKGFKSDYPRGQGTQVTVSS
Regarding B1, the Kd (usually a measure of binding affinity in units of concentration) turned out to be 0.018 µM.
